Experimental data: paper PMC4509971

Target: RNH domain of HIV-1 reverse transcriptase (RT residues 427-560) with E438N and T477A (HIV-1)
Assay: SEC-MALS

Work on “RNH domain of HIV-1 reverse transcriptase (RT residues 427-560) with E438N and T477A (domain or fragment)” yielded a stoichiometry N of 2.
